This is an account of results in paper PMC6817665.

For assay [1], the target named is CEP55 His-NOA (His-tag version of the human CEP55 NOA fragment, residues 304–396) (human) (UniProt Q53EZ4). Kind of assay: BLI.
Assay [2] has as its target mixture of biotinylated K63 poly-ubiquitin chains (Ub2-7) (UniProt P0CG48). Description: BLI. A general note: Biolayer interferometry detects binding as a change in optical thickness at a sensor tip.
Assay [3] concerns the target N-terminally fluorescein-labeled CEP55 ZF mutant E460A (human) (UniProt Q53EZ4). Description: fluorescence polarisation. A general note: In fluorescence polarisation assays a small probe gives low polarisation when free and higher when bound to something large.

CEP55 His-NOA (His-tag version of the human CEP55 NOA fragment, residues 304–396) (human), sequence (Q53EZ4 304-396): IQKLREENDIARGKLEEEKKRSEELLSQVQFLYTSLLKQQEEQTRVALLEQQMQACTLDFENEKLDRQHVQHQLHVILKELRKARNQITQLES
N-terminally fluorescein-labeled CEP55 ZF mutant E460A (human), sequence (Q53EZ4 435-464 E460A): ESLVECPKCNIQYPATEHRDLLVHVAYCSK

In assay [1], “K63-linked tetra-ubiquitin (Ub4) (from UniProt P0CG48 1-76) (complex)” showed a fold by which the KD is higher than that of M1-linked Ub4 of 30 fold.
For “Strep-tag II CEP55 ZF (StrepII-tag version of CEP55 ZF peptide, residues 435–464) (from UniProt Q53EZ4-1 435-464)”, the Kd in assay [2] is 2.1 µM.
Consider “mono-ubiquitin (from UniProt P0CG48 1-76) (natural protein)”, for which, in assay [3], the fold weaker affinity than WT was determined as 20 fold.

One may read the Kd as the constant that tells how readily two partners part at equilibrium.
